{
  "source": "patent US20250296997A1",
  "about": "(Eli Lilly, published 2025)",
  "binders": {"B1": {"name": "Antibody 1 (antibody, human IgG4 S228P, kappa, F234A L235A, V domains shown)", "VH": "not shown", "VL": "EIVLTQSPGTLSLSPGERATLSCRASQSVSSLYLAWYQQKPGQAPRLLIYGASSRATGIPDRFSGSGSGTDFTLTISRLEPEDFAVYYCQVVGSSPPFTFGGGTKVEIKR", "notes": "Fully human anti-IL-34 IgG4 (IgG4 PAA hinge/Fc, C-terminal lysine deleted), kappa light chain; also called Exemplified Antibody 1; exemplified antibody 1"}},
  "key": {"human IL-34 [1]": {"biological_target": "T1, human IL-34 (human, UniProt Q6ZMJ4 21-242, Biotinylated in the CSF1R displacement ELISA (sites not given); secreted homodimer, one monomer chain given.)", "T1 construct": "Biotinylated in the CSF1R displacement ELISA; also called hIL-34; h IL-34", "T1 sequence": "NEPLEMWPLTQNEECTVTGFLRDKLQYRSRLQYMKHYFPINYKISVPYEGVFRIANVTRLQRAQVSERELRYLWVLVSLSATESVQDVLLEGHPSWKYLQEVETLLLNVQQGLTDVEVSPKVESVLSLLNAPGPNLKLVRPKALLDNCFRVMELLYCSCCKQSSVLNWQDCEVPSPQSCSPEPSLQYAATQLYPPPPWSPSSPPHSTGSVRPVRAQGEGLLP", "test": "SPR, BIAcore 8K, 37 C, antibody captured on Protein A chip, IL-34 flowed; mean of at least three experiments (SD 2.9E-05 in r10c5)", "method": "(§1) Binding affinity of anti-IL-34 monoclonal antibodies of the present disclosure to human and/or cynomolgus monkey (cyno) IL-34 may be determined by methods known in the art. Briefly, the binding affinity and kinetics of the antibody are evaluated by surface plasmon resonance using BIAcore™ 8K (Cytiva) at 37° C. […] For each cycle, 200 μL IL-34 is flowed over the immobilized antibody at 100 μL/minute, and then dissociated for 20 minutes. The chip surface is regenerated with 50 μL of glycine buffer at pH 1.5 at a flow rate of 100 μL/minute. The data are fit to a 1:1 Langmiur binding mode to derive kon, koff and to calculate KD."}, "cynomolgus monkey IL-34 [2]": {"biological_target": "T2, cynomolgus monkey IL-34 (cynomolgus monkey, UniProt G7Q1L3 21-242)", "T2 construct": "Biotinylated in the CSF1R displacement ELISA; also called cyno IL-34", "T2 sequence": "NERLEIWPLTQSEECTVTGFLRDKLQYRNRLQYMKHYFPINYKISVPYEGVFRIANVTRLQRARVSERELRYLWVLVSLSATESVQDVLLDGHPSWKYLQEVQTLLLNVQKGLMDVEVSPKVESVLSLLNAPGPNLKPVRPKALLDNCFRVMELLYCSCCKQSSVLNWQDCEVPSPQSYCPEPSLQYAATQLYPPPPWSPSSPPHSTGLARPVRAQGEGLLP", "test": "SPR, BIAcore 8K, 37 C, antibody captured on Protein A chip, IL-34 flowed; mean of at least three experiments (SD 5.3E-05 in r12c5)", "method": "as §1"}, "human IL-34 [3]": {"biological_target": "T1, human IL-34", "test": "cell-based or functional assay"}, "cynomolgus monkey IL-34 [4]": {"biological_target": "T2, cynomolgus monkey IL-34", "test": "SPR, BIAcore 8K, 37 C, antibody captured on Protein A chip, IL-34 flowed; mean of at least three experiments (SD 16.2 in r12c6)", "method": "as §1"}, "human IL-34 [5]": {"biological_target": "T1, human IL-34", "test": "SPR, BIAcore 8K, 37 C, antibody captured on Protein A chip, IL-34 flowed; mean of at least three experiments (SD 4.4E+05 in r10c4)", "method": "as §1"}, "cynomolgus monkey IL-34 [6]": {"biological_target": "T2, cynomolgus monkey IL-34", "test": "SPR, BIAcore 8K, 37 C, antibody captured on Protein A chip, IL-34 flowed; mean of at least three experiments (SD 2.0E+06 in r12c4)", "method": "as §1"}, "human IL-34 [7]": {"biological_target": "T1, human IL-34", "test": "competition ELISA: displacement of biotinylated human IL-34 (3.7 nM) from plate-bound hCSF1R_Fc", "method": "(§2) CSF1R extracellular domain proteins (hCSFIR_Fc commercially available from R&D Cat #329-MR, cynomolgus CSFIR ECD-Fc (AAA is a linker between CSF1R extracellular domain and Fc) (SEQ ID NO: 53)) can be bound to an ELISA plate at concentrations of 30 nM in order to capture soluble biotinylated IL-34 and allowed to bind for one hour. After washing and blocking plate, biotinylated IL-34 may be added, then detected via streptavidin conjugated peroxidase. Concentrations of labeled IL-34 near the 80% binding level (EC₈₀) (3.7 nM) may be used in conjunction with a range of antibody concentrations (0-100 nM) to determine concentration of antibody required to displace IL-34 from CSF1R. After 1 hr incubation, IL-34 bound to CSFIR is detected via streptavidin conjugated peroxidase. The antibodies are assayed (n=2) and the average and standard deviation at each concentration are calculated. The potency of an antibody to displace IL-34 from CSFIR is reported as IC₅₀ (nM) with the calculated confidence interval (CI) in Table 4 and Table 5."}, "cynomolgus monkey IL-34 [8]": {"biological_target": "T2, cynomolgus monkey IL-34", "test": "competition ELISA: displacement of biotinylated cyno IL-34 from plate-bound cynomolgus CSF1R ECD-Fc", "method": "as §2"}, "human IL-34 [9]": {"biological_target": "T1, human IL-34", "test": "SPR, BIAcore 8K, 37 C, antibody captured on Protein A chip, IL-34 flowed; mean of at least three experiments (SD 4.8 in r10c6)", "method": "as §1"}},
  "data": [
    {"binder": "B1", "values": [
      {"measurement": "koff", "setting": "human IL-34 [1]", "result": 0.00026, "unit": "s⁻¹"},
      {"measurement": "koff", "setting": "cynomolgus monkey IL-34 [2]", "result": 0.0003, "unit": "s⁻¹"},
      {"measurement": "IC50 (ug/ml), neutralization of human IL-34 induced luciferase reporter activity in hCSF1R expressing 293 SRE cells", "setting": "human IL-34 [3]", "result": 0.0458, "unit": "µg/mL"},
      {"measurement": "Kd", "setting": "cynomolgus monkey IL-34 [4]", "result": 0.0409, "unit": "nM"},
      {"measurement": "kon", "setting": "human IL-34 [5]", "result": "8.4e+06", "unit": "M⁻¹ s⁻¹"},
      {"measurement": "kon", "setting": "cynomolgus monkey IL-34 [6]", "result": "7.9e+06", "unit": "M⁻¹ s⁻¹"},
      {"measurement": "IC50", "setting": "human IL-34 [7]", "result": 0.154, "unit": "nM"},
      {"measurement": "IC50", "setting": "cynomolgus monkey IL-34 [8]", "result": 0.644, "unit": "nM"},
      {"measurement": "Kd", "setting": "human IL-34 [9]", "result": 0.0312, "unit": "nM"}
    ]}
  ]
}
